Test results: patent US10357539B2, “Use of peptides that block metadherin-SND1 interaction as treatment for cancer” (THE TRUSTEES OF PRINCETON UNIVERSITY, priority 2014, dated 2019)
Numbering of substitutions follows the chain as printed. In names and notes the source's numbering stands.

T1: MTDH (364-582) (Homo sapiens, UniProt Q86UE4)
T1 construct: made in house; host or cells: E. coli DH5α
T1 sequence (Q86UE4 364-582): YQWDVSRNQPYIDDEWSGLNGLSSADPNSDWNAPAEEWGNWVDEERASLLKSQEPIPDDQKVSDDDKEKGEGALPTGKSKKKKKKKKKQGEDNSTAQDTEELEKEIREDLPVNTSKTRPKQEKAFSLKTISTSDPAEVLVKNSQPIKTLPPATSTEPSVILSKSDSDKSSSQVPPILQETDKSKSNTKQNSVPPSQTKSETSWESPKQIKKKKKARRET

T2: Myc-MTDH (Homo sapiens, UniProt Q86UE4, A78S/T317A)
T2 construct: Full-length HA-tagged SND1 was co-expressed with full-length Myc-tagged wild-type (WT) or mutant MTDH in HEK293T cells; expressed in transfected cells; host or cells: HEK293T
T2 sequence (Q86UE4 1-582 A78S/T317A): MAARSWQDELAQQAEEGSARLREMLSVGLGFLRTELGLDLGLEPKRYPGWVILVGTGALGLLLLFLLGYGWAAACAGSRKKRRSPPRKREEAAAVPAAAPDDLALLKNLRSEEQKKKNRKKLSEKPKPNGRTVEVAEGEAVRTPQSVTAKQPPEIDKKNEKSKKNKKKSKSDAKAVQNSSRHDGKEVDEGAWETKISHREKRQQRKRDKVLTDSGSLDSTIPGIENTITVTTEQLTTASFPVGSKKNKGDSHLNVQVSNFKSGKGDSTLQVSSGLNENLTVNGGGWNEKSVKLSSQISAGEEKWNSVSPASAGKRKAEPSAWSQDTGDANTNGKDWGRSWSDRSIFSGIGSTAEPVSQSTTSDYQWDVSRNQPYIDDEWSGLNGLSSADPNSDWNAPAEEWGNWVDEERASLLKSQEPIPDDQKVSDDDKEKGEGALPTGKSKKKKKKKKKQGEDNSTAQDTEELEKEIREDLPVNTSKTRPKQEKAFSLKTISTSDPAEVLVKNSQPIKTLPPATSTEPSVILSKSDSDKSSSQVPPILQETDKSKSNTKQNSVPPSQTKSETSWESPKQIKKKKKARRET

B1: R255E: SND1 mutant R255E (protein, listed as Homo sapiens)
chain: MASSAQSGGSSGGPAVPTVQRGIIKMVLSGCAIIVRGQPRGGPPPERQINLSNIRAGNLARRAAATQPDAKDTPDEPWAFPAREFLRKKLIGKEVCFTIENKTPQGREYGMIYLGKDTNGENIAESLVAEGLATRREGMRANNPEQNRLSECEEQAKAAKKGMWSEGNGSHTIRDLKYTIENPRHFVDSHHQKPVNAIIEHVRDGSVVRALLLPDYYLVTVMLSGIKCPTFRREADGSETPEPFAAEAKFFTESELLQRDVQIILESCHNQNILGTILHPNGNITELLLKEGFARCVDWSIAVYTRGAEKLRAAERFAKERRLRIWRDYVAPTANLDQKDKQFVAKVMQVLNADAIVVKLNSGDYKTIHLSSIRPPRLEGENTQDKNKKLRPLYDIPYMFEAREFLRKKLIGKKVNVTVDYIRPASPATETVPAFSERTCATVTIGGINIAEALVSKGLATVIRYRQDDDQRSSHYDELLAAEARAIKNGKGLHSKKEVPIHRVADISGDTQKAKQFLPFLQRAGRSEAVVEYVFSGSRLKLYLPKETCLITFLLAGIECPRGARNLPGLVQEGEPFSEEATLFTKELVLQREVEVEVESMDKAGNFIGWLHIDGANLSVLLVEHALSKVHFTAERSSYYKSLLSAEEAAKQKKEKVWAHYEEQPVEEVMPVLEEKERSASYKPVFVTEITDDLHFYVQDVETGTQLEKLMENMRNDIASHPPVEGSYAPRRGEFCIAKFVDGEWYRARVEKVESPAKIHVFYIDYGNREVLPSTRLGTLSPAFSTRVLPAQATEYAFAFIQVPQDDDARTDAVDSVVRDIQNTQCLLNVEHLSAGCPHVTLQFADSKGDVGLGLVKEGLVMVEVRKEKQFQKVITEYLNAQESAKSARLNLWRYGDFRADDADEFGYSR
B2: F250A: SND1 mutant F250A (protein, listed as Homo sapiens)
chain: B1 chain with F250A, E255R
B3: R324E: SND1 mutant R324E (protein, listed as Homo sapiens)
chain: B1 chain with E255R, R324E
B4: Δ39-43: SND1 with deletion in the SN1 Lβ2-β3 loop (Δ39-43) (protein)
chain: VPTVQRGIIKMVLSGCAIIVRGQPPERQINLSNIRAGNLARRAAATQPDAKDTPDEPWAFPAREFLRKKLIGKEVCFTIENKTPQGREYGMIYLGKDTNGENIAESLVAEGLATRREGMRANNPEQNRLSECEEQAKAAKKGMWSEGNGSHTIRDLKYTIENPRHFVDSHHQKPVNAIIEHVRDGSVVRALLLPDYYLVTVMLSGIKCPTFRREADGSETPEPFAAEAKFFTESRLLQRDVQIILESCHNQNILGTILHPNGNITELLLKEGFARCVDWSIAVYTRGAEKLRAAERFAKERRLRIWRDYVAPTANLDQK
modifications: left off: small tags and cut ends
B5: R316E: SND1 mutation located outside the interface, negative control (protein)
chain: VPTVQRGIIKMVLSGCAIIVRGQPRGGPPPERQINLSNIRAGNLARRAAATQPDAKDTPDEPWAFPAREFLRKKLIGKEVCFTIENKTPQGREYGMIYLGKDTNGENIAESLVAEGLATRREGMRANNPEQNRLSECEEQAKAAKKGMWSEGNGSHTIRDLKYTIENPRHFVDSHHQKPVNAIIEHVRDGSVVRALLLPDYYLVTVMLSGIKCPTFRREADGSETPEPFAAEAKFFTESRLLQRDVQIILESCHNQNILGTILHPNGNITELLLKEGFARCVDWSIAVYTRGAEKLRAAEEFAKERRLRIWRDYVAPTANLDQK
modifications: left off: small tags and cut ends
notes: SND1 mutation located outside the interface, negative control
B6: WT HA-SND1: full-length HA-tagged wild-type human SND1 (protein)
chain: B1 chain with E255R

What follows are molecules tested against T1, MTDH (364-582) (assay: GST-mediated pull-down of SND1 constructs and mutants by GST-tagged MTDH (364-582)). Details: SND1 mutants in SND1 (16-339).
Assay type: binding
Excerpt: (§1) (FIG. 22A) In vitro pull-down of SND1 (16-339) by GST-tagged MTDH (364-582) harboring WT or mutant sequence. The proteins bound to GS4B were examined on SDS-PAGE and visualized by Coomassie blue staining. (FIG. 22B) In vitro pull-down of WT and mutant SND1 (16-339) by GST-tagged MTDH (364-582). The bound proteins were examined as in (FIG. 22A). For both (FIG. 22A) and (FIG. 22B), experiments were repeated three times; representative results are shown. The normalized percentage of binding was averaged from three experiments; mean±SEM was shown below the data. (FIG. 22C) HEK293T cells were transfected with human HA-SND1, WT Myc-MTDH or Myc-MTDH with indicated single point mutation. Lysates were immunoprecipitated with anti-Myc antibody and immunoblotted with the indicated antibodies. (FIG. 22D) HEK293T cells were transfected with human Myc-MTDH, WT HA-SND1 or mutant HA-SND1 with indicated single point mutations or deletions. Lysates were immunoprecipitated with anti-Myc and immunoblotted with the indicated antibodies.
GST-Mediated Pull-Down Assay: ˜20 μg of GST-MTDH (different truncation forms and site mutants) was bound to 10 μl of glutathione resin via GST tag. The resin was washed with 200 μl assay buffer (25 mM Tris, PH8.0, 150 mM NaCl, 3 mM DTT) three times to remove the excess unbound protein. 15 μg of His-SND1 (16-339) was added to the resin in a 100 μl volume suspended in the assay buffer with 2 mg/ml of BSA. The mixture was washed with 200 μl assay buffer twice before examined by SDS-PAGE, and visualized by Coomassie blue staining. The experiments were repeated 3 times and the ratio of SND1 associated with GST-MTDH was analyzed by ImageJ.

Row | Molecule | MTDH-binding of SND1 domains and mutants, in vitro
1 | B1 | almost completely abolished MTDH-binding
2 | B2 | almost completely abolished MTDH-binding
3 | B3 | significantly weakened the MTDH-binding
4 | B4 | almost completely abolished MTDH-binding
5 | B5 | barely affected MTDH-binding

What follows are molecules tested against T2, Myc-MTDH (assay: Co-immunoprecipitation of HA-SND1 (WT or mutant) with Myc-MTDH in HEK293T cells). Details: HEK293T cell lysates.
Assay type: cell-based
Excerpt: as §1
Immunoprecipitation and western blot: For in vivo immunoprecipitation (IP) experiments, cultured cells were washed in cold PBS and lysed in lysis buffer (20 mM Tris pH 7.4, 0.15 M NaCl, 1 mM EDTA, 1 mM EGTA, 1% Tx-100, 0.0025 M Na2P2O7, 1 mM β-glycerolphosphate, 1 mM Na3VO4, and 1 mM NaF) with an EDTA-free protease inhibitor mixture (Roche Applied Science) and PMSF. Cell lysates were then incubated on ice for 10 min, centrifuged, and precleared by incubating with protein A/G beads (Santa Cruz Biotechnology) for 1 h at 4° C. For IP bead preparation, 30 μl of protein A/G beads were incubated with 5 μg of antibodies for 2 h at 4° C. IPs were carried out for overnight at 4° C., and beads were centrifuged, washed and subsequently boiled for 5 min in SDS protein loading buffer to elute bound protein. IP lysates were subjected to western blotting with indicated antibodies.

Row | Molecule | interaction of full-length HA-SND1 (WT or mutant) with Myc-MTDH
6 | B1 | nearly completely abolished MTDH-binding
7 | B6 | bound readily with Myc-MTDH
8 | B2 | nearly completely abolished MTDH-binding
9 | B3 | significantly reduced the binding
10 | B4 | nearly completely abolished MTDH-binding
11 | B5 | bound readily with Myc-MTDH
